{"source": "patent US20250382354A1", "about": "(INSTITUTE FOR RESEARCH IN BIOMEDICINE IRB, published 2025)", "binders": {"B1": {"name": "fp.008 (antibody, V domains shown)", "VH": "VQLVESGGGVVQPGRSLRLSCRASGFRFNNYAMHWVRQAPGKGLEWVAIISYEARNEKYAASVKGRFSISRDNAKNTLYLQMNSLRPEDTAIYYCARDVFLSDYDQSGYDVTRGGFDYWGQGTLVTVSS", "VL": "EIVMTQSPATLSVSPGESATLSCRASQSVSSSLAWYQHKFGQAPRLLIYGASTRATGIPDRFSGSGSGMEFTLTISSLQSEDVAIYYCQQYGDWPLVTFGGGTKVEIK"}, "B2": {"name": "fp.006 (antibody, V domains shown)", "VH": "VQLVESGGGVVQPGGSLRLSCAASGFNFNNYALHWVRQAPGKGLEWVAIISYEARNKKYGVSVMGRFSISRDNSKSIMYLEMNSLRVEDTGVYYCARDLFLSDYDRSGYDPTRGGFDHWGQGTLVTVSS", "VL": "B1 VL with S18R, K39R, Y49S, D60G, M69T, I85V"}, "B3": {"name": "fp.002 (antibody, V domains shown)", "VH": "VQLVESGGGVVQPGTSLRLSCAGSGFNFDNYAIHWVRQAPGQGLEWVAIISYEARNKKYAGSVTGRFSISRDNSKSMVYLQMDSLRGEDTAVYYCARDLFLSDYDRSGYDPTRGGFDLWGQGTLVTVSS", "VL": "B1 VL with S18R, F40L, D60G, M69T"}, "B4": {"name": "fp.009 (antibody, V domains shown)", "VH": "VQLVESGGGVVQPGTSLTLSCEASGFTFSNYAMHWVRQAPGKGLEWVAIISFDTRNKKFAGSVQGRFSISRDNAKNSIYLQMNNLRPEDTGIYYCARDVFLSDYDSRGFDRTRGGFDYWGQGTLVTVSS", "VL": "B1 VL with S18K, Q27E, S30G, H38Q, F40L, D60A, M69A, V83F, V97L"}, "B5": {"name": "fp.011 (antibody, V domains shown)", "VH": "EVQLLESGGGLVQPGGSLRLSCAGSGFTFNNYAMTWVRQAPGRGLEWVSAISGSGGSSHYADSVKGRFTITRDNSKNTLYLQMNSLRAEDTAVYYCAFIDYYSGWSYYYGLDVWGQGTTVTVSS", "VL": "EIVLTQSPATLSLSPGERATLSCRASQGVRTYVAWYQQKPGQAPRLLIYDASNRATGIPARFSGSGSGTDFTLTISSLEPEDFAVYYCQQRYNWPLCSFGQGTKLEIK"}, "B6": {"name": "fp.001 (antibody, V domains shown)", "VH": "VQLVESGGGVVQPGRPLRLSCSGSGFIFSNYAMHWVRQAPGKGLEWVAIISFDARNKRYADSVEGRFTISRDNSKNILYLQMNSLRLEDSAVYFCARDLFLSDYDNGVYDPTRGGFDYWGQGTLVTVSS", "VL": "EIVMTQSPATLSLSPGERATLSCRASQSVNNRLAWYQQKLGQPPRLLISGASTRATGIPARFTGSGSGTEFTLTISSLQSEDFAVYYCQQYHDWPLLSFGGGTKVEIK"}, "B7": {"name": "fp.003 (antibody, V domains shown)", "VH": "VQLVESGGGVVQPGTSLRLSCTASGFSFSNYAMHWVRQAPGKGLEWVAIISFDTRNKEFADSVKGRFSISRDNSKNSLNLQMNSLRPEDTGVYYCARDLFLSDYDSRGYEPSRGGFDYWGQGTLVTVSS", "VL": "B6 VL with L13V, N30S, N31S, R32S, S49Y, T63S, Q79K, F83S, H92N"}, "B8": {"name": "fp.004 (antibody, V domains shown)", "VH": "VQLVESGGGVVQPGTSLRLSCVASGFTFSNYAMHWVRQAPGKGLEWVAIISFDTRNTASAASVKGRFNISRDNSKNSLYLQMNSLRPEDTGVYYCARDLFLSDYDSRGYDPITGGFDCWGQGTLVTVSS", "VL": "EIVMTQSPAALSVSPGEGATLSCRASQSVGSRLAWYQQKLGRPPRLLIYGASTRATGIPARFSGSGSGTEFTLTISSLQSEDFAVYYCQQYNDWPLLTFGGGTKVKIK"}, "B9": {"name": "fp.005 (antibody, V domains shown)", "VH": "VQLVESGGGVVQPGNSLRLSCAASGFRFNNYAMHWVRQAPGKGLEWVAIISYEARNEKYADSVKGRFSISRDNAKNTLYLQMNSLRADDTGVYYCARDLFLSDYDTSGYDRTRGGFDYWGQGALVTVSS", "VL": "EIVMTQSPATLSVSPGERATLSCRASQSVSNGLAWYQHRFGQPPRLLIYGASTRATGIPTRFSGSGSGTEFTLTISSLQSEDFAVYYCQQYDDWPLITFGGGTKVEIK"}, "B10": {"name": "hr2.021 (antibody, V domains shown)", "VH": "QVQLVQSGAEVKKPGASVKVSCKASEAIFSGSYLHWVRQAPGQGLEWMGIITPSGDKTFYAQRFQGRLTMTRDTSTNTLHMHLSGLNSEDTAMYYCARQADKGGWDYWGQGTLVTVSS", "VL": "EIVLTQSPGTLSLSPGERATLSCRASQSVTSNYVAWYQQKPGQAPRLLIYGASTRATGIPDRFSGGGSGTDFTLTITRLEPEDFAVYYCQQYGSSPPTFTFGPGTKVDIK"}, "B11": {"name": "hr2.024 (antibody, V domains shown)", "VH": "QVQLVQSGAEVKKPGASVKVSCKASEDIFTDSYLHWVRQAPGQGLEWMGIITPSGDKTFYAQQFQGRLTMTRDPSTNTLYMFLSGLRSDDTAMYFCARQAEKGGWDYWGHGTLVTVSS", "VL": "B10 VL with E17Q, A25S, S28T, V29I, V34L, K40R, T54I, G66S, T77S, T100I"}, "B12": {"name": "hr2.023 (antibody, V domains shown)", "VH": "QVQLVQSGAEVKKPGASVKVSCRASENIFSDSYLHWVRQAPGQGLEWMGIITPSGDKTFYAQQFQGRLTMTRDTPTNTLHMDLRGLTSADTAIYYCARQATKGGWDYWGQGTLVTVSS", "VL": "B10 VL with R18S, S31R, V34L, K40Q, T54N, I59V, G66S, T77S, T100I"}, "B13": {"name": "hr2.012 (antibody, V domains shown)", "VH": "QVQLVQSGAEVKKPGASVKVSCKASGYTFTSHYIHWVRQAPGQGLEWMGIIKPSGGNTIYAQTFQGRVTMTRDTSTSTVYMELRSLTSDDTAVYYCARDQDHGLQRWGQGTLVTVSS", "VL": "QSVLTQPPSVSAPPGQKVTISCSGSSSNIGNNFVSWYQQLPGTAPKLLIYDNIERPSGIPDRFSGSRSGTSATLGITGLQTGDEADYYCGTWDTSLGAWVFGGGTKVTVL"}, "B14": {"name": "hr2.015 (antibody, V domains shown)", "VH": "QVQLVQSGAEVKKPGASVKVSCKASGYTFSSYYVNWVRQAPGQGLEWLGIINRSGSSTIYAQKFQGRVTMTRDTSTSTVYLELSSLRSEDTAVYYCARDQDHALHWGQGTLVTVSS", "VL": "B13 VL with P13A, N31S, F33Y, I53S, G97S, V107L"}, "B15": {"name": "hr2.013 (antibody, V domains shown)", "VH": "QVQLVQSGAEVKKPGASVKISCKASGYTFTNNYMNWVRQAPGQGLEWMGIIKPSSGSTIYAHKFQGRVTMTRDTSTSTVYMEVRSLTSEDTAVYYCARDQDHGLQNWGQGTLVTVSS", "VL": "B13 VL with P13A, P14S, S21Y, G30A, N31S, L40F, I53N, E54Q, V107L"}, "B16": {"name": "hr2.020 (antibody, V domains shown)", "VH": "EVQLVQSGAEVKKPGESLKISCKGSGYRFASHWIGWVRQMPGKGLQWMGIIYPGDSDTKYSPSFQGQVTISADKSINTVYLHWTSLKASDTAVYYCARRPPHLDGGDSPIRFDHWGQGTLVTVSS", "VL": "QSVLTQPPSASGTPGQRVTISCSGSRSNIGSNDVYWYQQFPGTAPKLLIYRNNQRPSGVPDRFSGSKSGTSASLAISGLRSEDEADYYCATWDDRLTGVFGGGTKLTVV"}, "B17": {"name": "hr2.025 (antibody, V domains shown)", "VH": "EVQLVQSGAEVKKPGESLKISCKGSGYSFTNYWIAWVRLMPGKGLEWMGFIFPGDSDTRYSPSFQGQVTISADKSISTAYLQWSSLKASDTAIYYCARRRGNSGNHDPYGMDVWGHGTTVTVSS", "VL": "not shown"}, "B18": {"name": "hr2.027 (antibody, V domains shown)", "VH": "B17 VH with T30A, S77T, Q82H, Y95F", "VL": "not shown"}, "B19": {"name": "hr2.017 (antibody, V domains shown)", "VH": "EVQLVESGGGLVQPGGSLRLSCAVSGFAFSSSWMHWIRQAPGRGLVWVSRINRDGSTTDYADSVKGRFTISRDNAKATLYLQMNSLRAEDTAVYYCATMGFDYWGQGALVTVSS", "VL": "DIVMTQSPDSLAVSLGERATINCKSSQNVLYSSNNKNHLSWYQQKPGQPPKLLIYWASTRKSGVPDRFSGSGSGTDFTLTINSLQAEDVAVYYCQQYFSTPNTFGQGTKLEIK"}, "B20": {"name": "hr2.016 (antibody, V domains shown)", "VH": "EVQLLESGGGLVQPGGSLRLSCAASGFMFSKYAMTWVRQTPGKGLEWVSVISGGGGSTYYADSVKGRFTISRDNSKNTLYLQMNSLRAEDTAVYYCAKLLVVFVIDYWGQGALVTVSS", "VL": "EIVLTQSPGTLSLSPGERATLFCRASQSVSSNLAWYQQKPGRAPRLLISGASSRATGIPDRFSGSGSGTDFTLTISRLEPEDFAVYYCQQYGSSPPTFGQGTKVEIK"}, "B21": {"name": "fp.010 (antibody, V domains shown)", "VH": "EVQLLESGGGLVQPGGSLRLSCAASGFTFSTYAMNWVRQAPGKGLEWVSAISSSGLSTQYADSVRGRFTISRDTSKNTLYLHMNSLRAGDTAVYYCAKVEYSGYDPRGPFDSWGQGTLVTVSS", "VL": "DIQMTQSPSTLSASVGDRVTITCRASQSISGWLAWYQQKPGRAPKLLIYKASSLERGVPSRFSGSGSGTEFTLTISSLQPDDFATYYCQEYSSYPLCTFGQGTKLEIK"}}, "note": "Where a chain is given by its changes, count along the chain named.", "data": [{"biological_target": "T1, HCoV-229E S ectodomain (HCoV-229E)", "T1 construct": "range 17-1142", "test": "ELISA on coated S", "units": {"EC50": "µg/mL"}, "values": [{"binder": "B1", "EC50": 0.0482}, {"binder": "B2", "EC50": 0.0349}, {"binder": "B3", "EC50": 0.04}, {"binder": "B4", "EC50": 0.0285}, {"binder": "B5", "EC50": 0.151}, {"binder": "B6", "EC50": 0.028}, {"binder": "B7", "EC50": 0.0443}, {"binder": "B8", "EC50": 0.037}, {"binder": "B9", "EC50": 0.0416}]}, {"biological_target": "HKU24 HR2 peptide (HKU24)", "test": "peptide ELISA", "units": {"EC50": "µg/mL"}, "values": [{"binder": "B10", "EC50": 0.0195}, {"binder": "B11", "EC50": 0.0218}, {"binder": "B12", "EC50": 0.0124}, {"binder": "B13", "EC50": 0.0249}, {"binder": "B14", "EC50": 0.0482}, {"binder": "B15", "EC50": 0.027}, {"binder": "B16", "EC50": 0.0329}, {"binder": "B17", "EC50": 0.0719}, {"binder": "B18", "EC50": 0.0919}, {"binder": "B19", "EC50": 0.0176}, {"binder": "B20", "EC50": 0.00958}]}, {"biological_target": "Eidolon HR2 peptide (Eidolon)", "test": "peptide ELISA", "units": {"EC50": "µg/mL"}, "values": [{"binder": "B12", "EC50": 0.126}, {"binder": "B13", "EC50": 0.463}, {"binder": "B15", "EC50": 0.186}, {"binder": "B17", "EC50": 2.92}, {"binder": "B18", "EC50": 1.21}, {"binder": "B20", "EC50": 0.033}]}, {"biological_target": "SADS FP peptide (SADS)", "test": "peptide ELISA", "units": {"EC50": "µg/mL"}, "values": [{"binder": "B1", "EC50": 0.024}, {"binder": "B2", "EC50": 0.0154}, {"binder": "B3", "EC50": 0.0252}, {"binder": "B4", "EC50": 0.0247}, {"binder": "B5", "EC50": 0.0276}, {"binder": "B6", "EC50": 0.0255}, {"binder": "B7", "EC50": 0.0305}, {"binder": "B21", "EC50": 0.0644}, {"binder": "B8", "EC50": 0.0276}, {"binder": "B9", "EC50": 0.0252}]}, {"biological_target": "C-terminally truncated SARS-CoV-2 S protein (pSARS-CoV2-Strunc), ancestral (SARS-CoV-2, UniProt P0DTC2 14-1273)", "test": "cell-based or functional assay", "units": {"Ancestral Pseudovirus IC50": "µg/mL", "Ancestral Pseudovirus IC50 (on cells with [not given])": "µg/mL"}, "values": [{"binder": "B10", "Ancestral Pseudovirus IC50": 3.02}, {"binder": "B11", "Ancestral Pseudovirus IC50": 0.301}, {"binder": "B1", "Ancestral Pseudovirus IC50": 3.56}, {"binder": "B3", "Ancestral Pseudovirus IC50": 16.1}, {"binder": "B4", "Ancestral Pseudovirus IC50": 0.873}, {"binder": "B13", "Ancestral Pseudovirus IC50": 1.72}, {"binder": "B14", "Ancestral Pseudovirus IC50": 3.83}, {"binder": "B6", "Ancestral Pseudovirus IC50": 2.19}, {"binder": "B7", "Ancestral Pseudovirus IC50": 9.26}, {"binder": "B8", "Ancestral Pseudovirus IC50": 7.84}, {"binder": "B19", "Ancestral Pseudovirus IC50": 0.542}, {"binder": "B9", "Ancestral Pseudovirus IC50": 9.09}, {"binder": "B20", "Ancestral Pseudovirus IC50": 0.01, "Ancestral Pseudovirus IC50 (on cells with [not given])": 0.012}]}]}
